The data set deals with the molecule itself. Kind of data set: cryo-EM structure.

B1: bacteriophage Qβ coat protein, wild-type (133 amino acids, lacking the A1 extension) (natural protein)
chain: MAKLETVTLGNIGKDGKQTLVLNPRGVNPTNGVASLSQAGAVPALEKRVTVSVSQPSRNRKNYKVQVKIQNPTACTANGSCDPSVTRQAYADVTFSFTQYSTDEERAFVRTELAALLASPLLIDAIDQLNPAY
Regarding B1, the binding result is “binds”.
